Target: the molecule itself
Assay: native gel or EMSA; Coomassie-stained 16% native gel; dimeric S100B sample

B1: S100B protein (natural protein, human)
chain: SELEKAMVALIDVFHQYSGREGDKHKLKKSELKELINNELSHFLEEIKEQEVVDKVMETLDNDGDGECDFQEFMAFVAMVTTACHEFFEHE
notes: S100B, Homo sapiens, UniProt P04271; Gene carried in the pETDuet-1 vector; The protein is a homodimer as purified; the monomer was obtained by extensive dialysis against deionized water; also called dimeric S100B; monomeric S100B; source: E. coli BL21-CodonPlus (DE3)-RIL, purified (ammonium sulfate, HiTrap Q XL anion exchange)
- binding result: binds

From article PMC12445344, “Influence of Calcium Ions on the Membrane Binding of S100B Protein” (Langmuir, 2025)
